Experimental data from patent publication US20250326839A1 (VIGIL NEUROSCIENCE, published 2025).
Residue numbers refer to the chain shown, from its start.

T1: human TREM2 (human, UniProt Q9NZC2 19-174, limits assumed)
T1 construct: also called triggering receptor expressed on myeloid cells 2
T1 sequence: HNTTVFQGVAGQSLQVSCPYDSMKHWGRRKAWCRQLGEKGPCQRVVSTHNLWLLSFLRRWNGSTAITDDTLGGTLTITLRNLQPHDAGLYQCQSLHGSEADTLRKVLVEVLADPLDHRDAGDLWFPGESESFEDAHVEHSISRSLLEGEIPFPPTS

B1: V76 (antibody, V domains shown)
VH: EVQLVQSGAEVKKPGESLKISCKGSGYSFGSYWIAWVRQMPGKGLEWMGIIYPGDSDTRYSPEFQGQVTISADKSISTAYLQWSSLKASDTAMYFCARQRTFYYDSSDYSDYWGQGTLVTVSS
VL: DIQMTQSPSSVSASVGDRVTITCRASQGISSWLAWYQQKPGKAPKLLIYAASSLQKGVPSRFSGSGSGRDFTLTISSLQPEDFATYFCQQADSFPRTFGQGTKLEIK
notes: also called 6E7 variant V76; LV-109/HV-110
B2: V86 (antibody, V domains shown)
VH: B1 VH with I34L, E63S, Q65E, Q99S, S110F
VL: B1 VL with L54R, K56N, R69T
notes: also called 6E7 variant V86
B3: V84 (antibody, V domains shown)
VH: B1 VH with S28G, G30T, E63S
VL: B1 VL with A50G, K56N, R69T
notes: also called 6E7 variant V84
B4: V85 (antibody, V domains shown)
VH: B1 VH with G30R, I50T, E63S, Q99S, S110F
VL: B1 VL with L54R, K56N, R69T
notes: also called 6E7 variant V85
B5: V89 (antibody, V domains shown)
VH: B1 VH with G30T, E63S, S110F
VL: B1 VL with K56N, R69T, F94H
notes: also called 6E7 variant V89
B6: V88 (antibody, V domains shown)
VH: B1 VH with E63S, S110F
VL: B1 VL with S53R, K56R, R69T, F94S
notes: also called 6E7 variant V88
B7: V87 (antibody, V domains shown)
VH: B1 VH with G30R, T58V, E63D, Q99S, S110F
VL: B1 VL with K56W, R69T
notes: also called 6E7 variant V87
B8: V77 (antibody, V domains shown)
VH: B1 VH with G30T, E63S, S110F
VL: B1 VL with L54R, K56N, R69T
notes: also called 6E7 variant V77

Key:
human TREM2 [1] = biological target: T1, human TREM2; assay: 2nd screen, 2 nM
human TREM2 [2] = biological target: T1, human TREM2; assay: 2nd screen, 10 nM
human TREM2 [3] = biological target: T1, human TREM2; assay: 1st screen, 10 nM Ab

| Binder | Binding Signal (human TREM2 [1]) | Binding Signal (human TREM2 [2]) | Binding Signal (human TREM2 [3]) |
| --- | --- | --- | --- |
| B1 | 4.34 fold over 6E7 parental antibody | 4.93 fold over 6E7 parental antibody | 4.57 fold over 6E7 parental antibody |
| B2 | 5.17 fold over 6E7 parental antibody | 5.02 fold over 6E7 parental antibody | 4.8 fold over 6E7 parental antibody |
| B3 | 1.45 fold over 6E7 parental antibody | 1.62 fold over 6E7 parental antibody | 1.44 fold over 6E7 parental antibody |
| B4 | 5.41 fold over 6E7 parental antibody | 5.37 fold over 6E7 parental antibody | 5.41 fold over 6E7 parental antibody |
| B5 | 0.94 fold over 6E7 parental antibody | 1.46 fold over 6E7 parental antibody | 1.33 fold over 6E7 parental antibody |
| B6 | 5.57 fold over 6E7 parental antibody | 5.3 fold over 6E7 parental antibody | 4.92 fold over 6E7 parental antibody |
| B7 | 4.86 fold over 6E7 parental antibody | 3.93 fold over 6E7 parental antibody | 3.84 fold over 6E7 parental antibody |
| B8 | 0.83 fold over 6E7 parental antibody | 1.38 fold over 6E7 parental antibody | 1.43 fold over 6E7 parental antibody |
